Data published in patent publication US20190359710A1.
Each block holds one binder with its values, some of them ahead of it.

Experiments:
[1] = biological target: CD33 and CD123 together on double-positive human AML cells; test: calibrated flow cytometry on MOLM13 cells (CD33/CD123 double-positive)
[2] = biological target: CD33 and CD123 together on double-positive human AML cells; test: cell-based or functional assay

Kd [1]: 11 nM
B1: candidate triplebody hu[33-ds16-ds123RK] before polishing of the sequence (protein, not shown: small tags and cut ends)
chain: EVQLVESGGGLIQPGGSLRLSCAASGFPLTSYGVSWVRQPPGKGLEWLGVIWGDGSTNYHSALISRFTISRDNSKNTLYLQMNSLRAEDTAVYYCARDTYYPYYAMDYWGQGTTVTVSSGGGGSGGGGSGGGGSDIQMTQSPSSLSASVGDRVTITCKASQDVSTAVAWYQQKPGKAPKLLIYSASYRYTGVPSRFSGSGSGTDFTLTISSLQPEDFATYYCQQHYSTPLTFGQGTKLEIKRGGGGSGGGGSGGGGSGGGGSDIVLTQSPSSLSASVGDRVTITCKASQSVDFDGDSFMNWYQQKPGKAPKLLIYTTSNLESGVPSRFSASGSGTDFTLTISSLQPEDFATYYCQQSNEDPYTFGCGTKVEIKRGGGGSGGGGSGGGGSGGGGSEVQLVESGGGDVQPGGSLRLSCAFSGFSLRTSGMGVGWIRQAPGKCLEWVAHIWWDDDKRYNPSVKGRFTISKDTSSNTVYLQMNSLRAEDTAVYYCAQINPAWFAYWGQGTLVTVSSGGGGSGGGGSGGGGSGGGGSEVQLVESGGGLVQPGGSLRLSCAASGFTFTDYYMSWVRQAPGKCLEWLALIRSKADGYTTEYSASVKGRFTISRDDSKNSLYLQMNSLKTEDTAVYYCARDAAYYSYYSPEGAMDYWGQGTSVTVSSGGGGSGGGGSGGGGSDIQMTQSPSSLSASVGDRVTITCKASQNVDSAVAWYQQKPGKAPKALIYSASYRYSGVPSRFSGSGSGTDFTLTISSLQPEDFATYYCQQYYSTPWTFGCGTKVEIKR

% specific lysis of MOLM-13 cells at 1 nM SPM-2, 4 hr time point [2]: 30.7% | Biol. Activity EC50 [pM], redirected lysis (RDL), 3 h, E:T=10:1 (MNC:MOLM-13) [2]: 14 pM | EC50 (pM), RDL cytolysis of primary MNCs of AML patient P1 with LAK cells [2]: 131 pM | EC50 (pM), RDL cytolysis of primary MNCs of AML patient P2 with LAK cells [2]: 20 pM | EC50 (pM), RDL cytolysis of primary MNCs of AML patient P3 with LAK cells [2]: 67 pM | EC50 (pM), RDL cytolysis of primary MNCs of AML patient P4 with LAK cells [2]: 32 pM | EC50 (pM), RDL cytolysis of primary MNCs of AML patient P5 with LAK cells [2]: 242 pM | EC50 (pM), RDL cytolysis of primary MNCs of AML patient P6 with LAK cells [2]: 155 pM | EC50 (pM), RDL cytolysis of primary MNCs of AML patient P7 with LAK cells [2]: 79 pM | EC50 (pM), RDL cytolysis of primary MNCs of AML patient P8 with LAK cells [2]: 133 pM | EC50 (pM), RDL cytolysis of primary MNCs of AML patient P9 with LAK cells [2]: 166 pM | EC50 (pM), RDL cytolysis of primary MNCs of AML patient P10 with LAK cells [2]: 51 pM | EC50 (pM), RDL cytolysis of primary MNCs of AML patient P11 with LAK cells [2]: 1080 pM | EC50 (pM), RDL cytolysis of primary MNCs of AML patient P12 with LAK cells [2]: 38 pM | EC50 (pM), RDL cytolysis of primary MNCs of AML patient P13 with LAK cells [2]: 245 pM | EC50 (pM), RDL cytolysis of primary MNCs of AML patient P14 with LAK cells [2]: 229 pM | EC50 (pM), RDL cytolysis of primary MNCs of AML patient P15 with LAK cells [2]: 177 pM | EC50 (pM), RDL cytolysis of primary MNCs of AML patient P16 with LAK cells [2]: 758 pM | EC50 (pM), RDL cytolysis of primary MNCs of AML patient P17 with LAK cells [2]: 125 pM | EC50 (pM), RDL cytolysis of primary MNCs of AML patient P18 with LAK cells [2]: 221 pM | EC50 (pM), RDL cytolysis of primary MNCs of AML patient P19 with LAK cells [2]: 406 pM | EC50 (pM), RDL cytolysis of primary MNCs of AML patient P20 with LAK cells [2]: 251 pM | EC50 (pM), RDL cytolysis of primary MNCs of AML patient P21 with LAK cells [2]: 22 pM | EC50 (pM), RDL cytolysis of primary MNCs of AML patient P22 with LAK cells [2]: 225 pM | EC50 (pM), RDL cytolysis of primary MNCs of AML patient P23 with LAK cells [2]: 476 pM | EC50 (pM), RDL cytolysis of primary MNCs of AML patient P24 with LAK cells [2]: 127 pM | EC50 (pM), RDL cytolysis of primary MNCs of AML patient P25 with LAK cells [2]: 541 pM | EC50 (pM), RDL cytolysis of primary MNCs of AML patient P26 with LAK cells [2]: 58 pM | EC50 (pM), RDL cytolysis of primary MNCs of AML patient P27 with LAK cells [2]: 10 pM | EC50 (pM), RDL cytolysis of primary MNCs of AML patient P28 with LAK cells [2]: 560 pM | EC50 (pM), RDL cytolysis of primary MNCs of AML patient P29 with LAK cells [2]: 70 pM | EC50 (pM), RDL lysis of CD34-enriched MNCs of AML patient P9 [2]: 43 pM | EC50 (pM), RDL lysis of CD34-enriched MNCs of AML patient P11 [2]: 681 pM | EC50, standard RDL assay, MOLM-13 targets, thawed LAK cells, 4 hr, MNC:Target 10:1 [2]: 0.024 nM
B2: single chain triplebody SPM-2, hu(33-ds16-ds123RK) (protein)
chain: EVQLVESGGGLIQPGGSLRLSCAASGFPLTSYGVSWVRQPPGKGLEWLGVIWGDGSTNYHSALISRFTISRDNSKNTLYLQMNSLRAEDTAVYYCARDTYYPYYAMDYWGQGTTVTVSSGGGGSGGGGSGGGGSDIQMTQSPSSLSASVGDRVTITCKASQDVSTAVAWYQQKPGKAPKLLIYSASYRYTGVPSRFSGSGSGTDFTLTISSLQPEDFATYYCQQHYSTPLTFGQGTKLEIKRGGGGSGGGGSGGGGSGGGGSDIVLTQSPSSLSASVGDRVTITCKASQSVDFDGDSFMNWYQQKPGKAPKLLIYTTSNLESGVPSRFSASGSGTDFTLTISSLQPEDFATYYCQQSNEDPYTFGCGTKVEIKRGGGGSGGGGSGGGGSGGGGSEVQLVESGGGDVQPGGSLRLSCAFSGFSLRTSGMGVGWIRQAPGKCLEWVAHIWWDDDKRYNPSVKGRFTISKDTSSNTVYLQMNSLRAEDTAVYYCAQINPAWFAYWGQGTLVTVSSGGGGSGGGGSGGGGSGGGGSEVQLVESGGGLVQPGGSLRLSCAASGFTFTDYYMSWVRQAPGKCLEWLALIRSKADGYTTEYSASVKGRFTISRDDSKNSLYLQMNSLKTEDTAVYYCARDAAYYSYYSPEGAMDYWGQGTSVTVSSGGGGSGGGGSGGGGSDIQMTQSPSSLSASVGDRVTITCKASQNVDSAVAWYQQKPGKAPKALIYSASYRYSGVPSRFSGSGSGTDFTLTISSLQPEDFATYYCQQYYSTPWTFGCGTKVEIKRGGGGSHHHHHH
